We go through 3 molecules from publication PMC4059916 (2014).

In general, Kd refers to the equilibrium constant for the complex coming apart. Read a high Kd as lower affinity.

Sequences and labels used below:
T1: Rab32 1-225 (Q85L), GTP hydrolysis-defective mutant, GST removed (UniProt Q13637 1-225, Q85L)
T1 sequence: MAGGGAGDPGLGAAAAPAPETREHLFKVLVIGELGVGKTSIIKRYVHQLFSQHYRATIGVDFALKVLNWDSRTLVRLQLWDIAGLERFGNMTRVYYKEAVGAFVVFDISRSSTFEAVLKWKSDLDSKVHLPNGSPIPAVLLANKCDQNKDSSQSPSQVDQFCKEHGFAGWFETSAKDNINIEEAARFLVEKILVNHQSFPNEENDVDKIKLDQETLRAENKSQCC

B1: Rab32 (Q85L/G89T/N90S/V94L) (protein)
chain: T1 sequence with G89T, N90S, V94L
modifications: Construct limits taken from the parent Rab32 1-225 (PDB 4CYM entity 1); Mg2+ and GTP-analogue state (GppCp or GTPgammaS) presumed
B2: VARP451-640His6 Q509A/Y550A (domain or fragment)
chain: PSVVTPFSRDDRGHTPLHVAAVCGQASLIDLLVSKGAMVNATDYHGATPLHLACQKGYASVTLLLLHYKASAEVQDNNGNTPLHLACTYGHEDCVKALVAYDVESCRLDIGNEKGDTPLHIAARWGYQGVIETLLQNGASTEIQNRLKETPLKCALNSKILSVMEAYHLSFERRQKSSEAPVQSPQRSVD
B3: VARP451-640His6 (first ankyrin repeat domain, ANKRD1), wild type (domain or fragment)
chain: B2 chain with A59Q, A100Y

Common to all, as to assay: ITC
In test [1] the target is B3.
The target of test [2] is T1, Rab32 1-225 (Q85L), GTP ….
Test [3] concerns the target Rab32(Q85L) mutated at M91/R93 (Switch-II), GST removed, as used in ITC (UniProt Q13637 1-225, Q85L).

Numbering of substitutions follows the chain as printed. Names and notes keep the numbering of the source.

B1 registered a Kd in test [1] of 13 µM. In test [2], B2 yielded a Kd greater than 300 µM. As for B3, the Kd in test [3] was greater than 300 µM.
